To fix the notation:
B1: cynomolgus monkey FcγRIIb extracellular domain, C-terminal hexa-His (receptor)
chain: TPAAPPKAVLKLEPPWINVLREDSVTLTCGGAHSPDSDSTQWFHNGNLIPTHTQPSYRFKANNNDSGEYRCQTGRTSLSDPVHLTVLSEWLALQTPHLEFREGETIMLRCHSWKDKPLIKVTFFQNGKSKKFSHMDPNFSIPQANHSHSGDYHCTGNIGYTPYSSKPVTITVQVP
B2: cynomolgus monkey FcγRI extracellular domain, C-terminal hexa-His (receptor)
chain: QVDTTKAVITLQPPWVSVFQEETVTLQCEVPRLPGSSSTQWFLNGTATQTSTPSYRITSASVKDSGEYRCQRGPSGRSDPIQLEIHRDWLLLQVSSRVFTEGEPLALRCHAWKDKLVYNVLYYQNGKAFKFFYRNSQLTILKTNISHNGAYHCSGMGKHRYTSAGVSVTVKELFPAPVLNASVTSPLLEGNLVTLSCETKLLLQRPGLQLYFSFYMGSKTLRGRNTSSEYQILTARREDSGFYWCEATTEDGNVLKRSPELELQVLGLQLPTPVWLH
B3: cynomolgus monkey FcγRIIa extracellular domain, C-terminal hexa-His (receptor)
chain: KAVLKLEPPWINVLREDSVTLTCGGAHSPDSDSTQWFHNGNLIPTHTQPSYRFKANNNDSGEYRCQTGRTSLSDPVHLTVLSEWLALQTTHLEFREGETIMLRCHSWKDKPLIKVAFFQNGKSKKFSHMNPNFSIPQANHSHSGDYHCTGNIGYTPYSSKPVTITVQGLSSLVPSVGSSSPTG

This assay addresses T1, anti-CD20 IgG1 L234S/L235T/G236R (human).
T1 construct: rituximab VH, as in m1; human IgG1 constant region; as the light chain of m1; also called 2–52; variant 52; source: HEK293, transient, purified (Protein A)
Briefly: SPR; antibody captured by biotin-labelled anti-human κ light chain on streptavidin CM5; soluble Fcγ receptor injected at one concentration (12.5 nM to 18 μM); HBS-EP+ pH 7.4, 25°C; Biacore 8K. The note with it: both partners purified. In general terms: In SPR one partner is held on a chip, and binding of the other changes the refractive index at the surface.
Turning to B1, the response was < 1 RU.
As to B2, the response was < 1 RU.
In the case of B3, the response is < 1 RU.
